Publication PMC9223271 (Nature Communications, 2022)

B1: ZCB11 (human IgG1 monoclonal antibody) (antibody, V domains shown)
VH: EVQLVQSGPEVKKPGTSVKVACKASGFTFITPVSMQWVRQARGQRLEWLGWIVLASGNTDYAQKFQERVTIIRDMSTSTAYMELSRLRTEDTAVYYCAAPSCSRTICSDGFDIWGQGTMVTVSS
VL: EIVLTQSPGTLSLSPGERATLSCRASQSVSSSYLAWFQQKPGQAPRLLIFAASSRAIGIPARFSGSGSGTDFTLTISRLEPEDFAVYYCQQYSSSPWTFGQGTKVEIK
notes: also called bNAb ZCB11
B2: S2E12 (antibody, V domains shown)
VH: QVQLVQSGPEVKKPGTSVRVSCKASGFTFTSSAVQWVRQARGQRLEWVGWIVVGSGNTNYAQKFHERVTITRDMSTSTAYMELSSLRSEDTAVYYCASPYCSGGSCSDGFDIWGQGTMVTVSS
VL: DIVLTQTPGTLSLSPGERATLSCRASQSVSSSYLAWYQQKPGQAPRLLIYGASSRATGIPDRFSGSGSGTDFTLTISRLEPEDFAVYYCQQYVGLTGWTFGQGTKVEIK
notes: source: generated by the authors

Biological target: T1, SARS-CoV-2 RBD protein (recombinant, WT) (SARS-CoV-2 wild type (Wuhan-Hu-1 …, UniProt P0DTC2))
T1 construct: also called WT RBD
Test: SPR
Conditions: both partners purified

Binder | Kd | binding result
B1 | 0.0575 nM | –
B2 | – | binds
